B1: Rep15, full length (natural N101D variant) [human] / Rab3A, purified, nucleotide-loaded [human] (parent complex)
chain 1: MGQKASQQLALKDSKEVPVVCEVVSEAIVHAAQKLKEYLGFEYPPSKLCPAANTLNEIFLIHFITFCQEKGVDEWLTTTKMTKHQAFLFGADWIWTFWGSDKQIKLQLAVQTLQMSSPPPVESKPCDLSNPESRVEESSWKKSRFDKLEEFCNLIGEDCLGLFIIFGMPGKPKDIRGVVLDSVKSQMVRSHLPGGKAVAQFVLETEDCVFIKELLRNCLSKKDGLREVGKVYISIL
chain 2: MASATDSRYGQKESSDQNFDYMFKILIIGNSSVGKTSFLFRYADDSFTPAFVSTVGIDFKVKTIYRNDKRIKLQIWDTAGQERYRTITTAYYRGAMGFILMYDITNEESFNAVQDWSTQIKTYSWDNAQVLLVGNKCDMEDERVVSSERGRQLADHLGFEFFEASAKDNINVKQTFERLVDVICEKMSESLDTADPAVTGAKQGPQLSDQQVPPHQDCAC

The values below come from publication PMC9308819 (Nature Communications, 2022).

One may read the Kd as the constant that tells how readily two partners part at equilibrium.

The variants in the first test derive from B1. Description: ITC. A general note: Isothermal titration calorimetry measures the heat released or taken up as one component is titrated into another.
Regarding chain 1 H84A, the Kd was 450 nM.

The variants in another test derive from B1. Description: ITC. The source holds these as a separate data set.
Take chain 1 V135A: the Kd was determined as 510 nM.
